The DeepSol protein solubility set

Assay: soluble on expression in E. coli; label from the status in PepcDB or PDB records
In the case of “GSSHHHHHHMGNVFDYEDIQLIPAKCIVNSRSECDTTVTLGKHKFKLPVVPANMQTIIDERIATYLAENNYFYIMHRFQPEKRISFIRDMQSRGLIASISVGVKEDEYEFVQQLAAEHLTPEYITIDIAHGHSNAVINMIQHIKKHLPESFVIAGNVGTPEAVRELENAGADATKVGIGPGKVCITKIKTGFGTGGWQLAALRWCAKAASKPIIADGGIRTNGDVAKSIRFGATMVMIGSLFAGHEESPGETIEKDGKLYKEYFGSASEFQKGEKKNVEGKKMFVEHKGSLEDTLIEMEQDLQSSISYAGGTKLDSIRTVDYVVVKNSIFNGDKVY”, the “soluble on expression in E. coli” value is reported as “soluble”.
With “KRATQFTASILSLYNSEQMLQKTDPMSVISSAMVAATLDLPIDKNLGYAWIVPYGGKAQFQLGYKGYIQLALRTGQYKSINCIPIHEGELQKWNPLTEEIEIDFEKRESDAVIGYAAYFELINGFRKTVYWTKAQVEKHKKKFSKSDFGWKNDWDAMALKTVLKAVLSKWGILSVEMQKAVIEEDETRERIDITNEADSSEIIDSE” the “soluble on expression in E. coli” value was “soluble”.
For “SNAYSIALIIPSLFEKACAHFLPSFQQALNKAGYQLLLGYSDYSIEQEEKLLSTFLESRPAGVVLFGSEHSQRTHQLLEASNTPVLEIAELSSKASYLNIGVDHFEVGKACTRHLIEQGFKNVGFIGARGNHSTLQRQLHGWQSAMIENYLTPDHFLTTHEAPSSQLGAEGLAKLLLRDSSLNALVCSHEEIAIGALFECHRRVLKVPTDIAIICLEGSSMGEHAYPSLTSAEFDYERMGTKAAEKLLHAIKGEPEERPTSMGFKLKRRASTAIN”, the “soluble on expression in E. coli” value was “soluble”.
For “MRTLFFIPSMGSVRLPLIDFLVKNDIEYVILSRRNHVAVQREIALDMFLEMKDYDTLAFLDEDVVPIEIDFQKVEAKFNEGYDVVCGYYYLKTLRGYSVYRKDWEKEIFDGEVNGCGLGFTFIKREFLEKIKRPAFLAFKPIESPHWIGEDVYFFSTHKPRTYALSSLKAYHFIDERLALSPDRKLILQNDHVARIKHHHHHH”, the “soluble on expression in E. coli” value was “soluble”.
For “MGSDKIHHHHHHMELKILVTGGNVFVPGRLNAHFSTVVYLEHKDRRIIIDPGNLSSMDELEEKFSELGISPDDITDVLFTHVHLDHIFNSVLFENATFYVHEVYKTKNYLSFGTIVGRIYSKVISSWKNVVLLKGEESLFDEKVKVFHTPWHAREHLSFLLDTENAGRVLITGDITPNRLSYYDIIKGYGSVQVKNFLDRVGRIDLLVFPHDAPLKPEVKK”, the “soluble on expression in E. coli” value was “soluble”.
In the case of “LESLLTLPLAGEARVRILQITDTHLFAQKHEALLGVNTWESYQAVLEAIRPHQHEFDLIVATGDLAQDQSSAAYQHFAEGIASFRAPCVWLPGNHDFQPAMYSALQDAGISPAKRVFIGEQWQILLLDSQVFGVPHGELSEFQLEWLERKLADAPERHTLLLLHHHPLPAGCSWLDQHSLRNAGELDTVLAKFPHVKYLLCGHIHQELDLDWNGRRLLATPSTCVQFKPHCSNFTLDTIAPGWRTLELHADGTLTTEVHRLADTRFQPDTASEGY”, the “soluble on expression in E. coli” value is reported as “soluble”.
With “MGSDKIHHHHHHMMGKTEYLDYYSGKRVLVTGGAGAVGSNLVRRLLDLGAFVIVIDNLSSGYTWLLPQDAPNLLFIEGDITNDVDLKRVFNEEPEIIFHLAAFFANQNSVDYPEKDLWVNGFGTLKLLEYTRIYGKVERFVYASSGCSIYPSDAPMPFKEDLPISSWMSTPYQITKALGELYCNYFYKMYDIPITKARFFNSFGPGEVPGQYRNVIPNFIYWAMLGKPLPITGTGEETRDFTYVGDIVDGLLRMGYYREAIGEAFNLAAGREVKIKYLAEKVNELTGNTAGIVFKPRRKWDTKPRMLASNEKAKKVLGFNPDPDFDGRLAETVEWFKQNWELIKKSAEFGPGVSSAVR” the “soluble on expression in E. coli” value was “not soluble”.
For “MAVVRRAVAARGLQMIAKPLTVVPGFDVWPGLLDISAQRALVEAVLAGAEQAPFSNYRTAYGKPMSVAMTALGSLGWTSDARGYRYVDRHPETGRPWPDMPPALLDLWTVLGDPETPPDSCLVNLYRDGARMGLHQDRDEADPRFPVLSISLGDTAVFRIGGVNRKDPTRSLRLASGDVCRLLGPARLAFHGVDRILPGSSSLVPGGGRINLTLRRARTALEHHHHHH”, the “soluble on expression in E. coli” value was “not soluble”.
